Source: the RNAGym collection of RNA variant scans (doi:10.7554/elife.90254)

B1: OR4K15 (parent)
chain: GUUAACGGUCAUAGGCCAUGGAAACUAGGAGCACCAUUUCGCUGCCAGUGAAGAAAUGAACAAAGAAAAUCUGGGCCAGGCAGGCAUCAAAAGAAAUAGUCUUGCGCUCAACCAGAAAGUCUGUAAUCAUUUUAAGGGUA

Variants of: B1
Experiment: self-cleavage, relative activity (ratio to wild type); higher = more cleavage; in vitro, sequencing; the parent is a self-cleaving ribozyme
In the case of A51G A63G, the self-cleavage is reported as 1.17. In the case of C40G A90G, the self-cleavage is reported as 1.44. In the case of A52C G84U, the self-cleavage is reported as 0.51. With U39C A98G the self-cleavage was 0.98. A82G A117G gave a self-cleavage of 0.85. Work on U2C U100A yielded a self-cleavage of 0.48. In the case of A59U A91G, the self-cleavage is reported as 0.79. For A89G A140G, the self-cleavage was 1.55. Work on A86G A117U yielded a self-cleavage of 1.45. A22G A92U showed a self-cleavage of 1.94. A54G A95U showed a self-cleavage of 1.53. With U130C U132C the self-cleavage was 1.17. Variant C10A has a self-cleavage of 1.11. With A24G A64U the self-cleavage was 1.51. Variant A33G A116G has a self-cleavage of 0.24. Variant A47U C101U has a self-cleavage of 0.22. For G80U U87C, the self-cleavage was 0.22. Variant U102C U108C has a self-cleavage of 0.01. Work on A4G G50U yielded a self-cleavage of 1.39. Work on U2G A92G yielded a self-cleavage of 0.73. For A54G G115A, the self-cleavage was 0.25. With A90U A91G the self-cleavage was 1.95. For A18G A47U, the self-cleavage was 1.1. Variant U26C A126G has a self-cleavage of 0.72. A63G A86U gave a self-cleavage of 2.04. U37A A60U gave a self-cleavage of 1.8. Variant G41C U139A has a self-cleavage of 1.78. In the case of A66U U122C, the self-cleavage is reported as 1.09. For U9C A91G, the self-cleavage was 1.2. Work on A11G U100C yielded a self-cleavage of 1.06. With C25U A82G the self-cleavage was 0.05. A22G A64G gave a self-cleavage of 1.31. With A11U U70C the self-cleavage was 0.67. U2A C45A showed a self-cleavage of 1.82. Variant U19A A59U has a self-cleavage of 1.72. With G74U G104A the self-cleavage was 0.02. For U102C U108A, the self-cleavage was 0.01. Variant U100A A129G has a self-cleavage of 0.23. Work on A95G U120C yielded a self-cleavage of 1.82. For G75A U100C, the self-cleavage was 0.12. In the case of A98G U103C, the self-cleavage is reported as 0.05. Work on A22G A55G yielded a self-cleavage of 1.16. Variant A5C A98G has a self-cleavage of 0.42. In the case of A62U U108A, the self-cleavage is reported as 0.02. In the case of A62G U139A, the self-cleavage is reported as 1.84. U38C U139A showed a self-cleavage of 1.75. C40U A114U showed a self-cleavage of 0.1. Work on A56G A110U yielded a self-cleavage of 1.05. In the case of A11U A33G, the self-cleavage is reported as 0.98. In the case of A5G U120A, the self-cleavage is reported as 1.77. With A66G A110G the self-cleavage was 0.15. With U9C G65A the self-cleavage was 2.38. A64G G75U gave a self-cleavage of 0.12. In the case of C10U U120C, the self-cleavage is reported as 1.12. For A27G A135G, the self-cleavage was 0.84. C35A C121A gave a self-cleavage of 1.53. In the case of G58U U100C, the self-cleavage is reported as 2.08. Work on A51U G84A yielded a self-cleavage of 0.65. A36U U122A gave a self-cleavage of 1.78. In the case of A11G A47U, the self-cleavage is reported as 0.98. Variant A22G G83U has a self-cleavage of 0.54. Variant A47U A98G has a self-cleavage of 0.16. Work on A30G A56C yielded a self-cleavage of 0.43. Work on U97C A98C yielded a self-cleavage of 0.75. With A52G A67G the self-cleavage was 1.13. A47C A60G gave a self-cleavage of 1.63. U49C U133C gave a self-cleavage of 1.76. Variant C32A U39C has a self-cleavage of 1.42. A69U A125G showed a self-cleavage of 0.75. Work on U49C A98U yielded a self-cleavage of 2.55. G8U U108A showed a self-cleavage of 0. In the case of G48U A118G, the self-cleavage is reported as 1.08. In the case of U72C U103G, the self-cleavage is reported as 0.01. With A86G U100A the self-cleavage was 0.41. Work on A95G A135U yielded a self-cleavage of 1.45. With U2A U102A the self-cleavage was 1.51. A24C A54G showed a self-cleavage of 1.21. Variant G119A A129U has a self-cleavage of 0.67. Work on A66G A117G yielded a self-cleavage of 1.88. With A118U the self-cleavage was 0.61. Work on U9C G106A yielded a self-cleavage of 0.01. In the case of A67G U124G, the self-cleavage is reported as 1.24. With A36G A94G the self-cleavage was 1.86. In the case of A91G A117C, the self-cleavage is reported as 0.67. Variant A23C A59G has a self-cleavage of 0.63. G106A U130C gave a self-cleavage of 0.01. A24C A66G gave a self-cleavage of 1.16. For G31C A55U, the self-cleavage was 1.76. Variant A92G C101U has a self-cleavage of 0.12. With A67G A82U the self-cleavage was 0.07. Variant C6A A60G has a self-cleavage of 0.5. With U37C U49A the self-cleavage was 1.64. With G106A U127A the self-cleavage was 0.01. A60G A129G gave a self-cleavage of 0.49. Work on G53A G136U yielded a self-cleavage of 2.03. With G7U G138C the self-cleavage was 2.14. With U131C the self-cleavage was 0.71. A59G A116G gave a self-cleavage of 0.77. A11G U49A gave a self-cleavage of 0.88. For A18U A140U, the self-cleavage was 1.33. For C40U G99A, the self-cleavage was 0.32. Variant A69U A82G has a self-cleavage of 0.63. In the case of A5G A51G, the self-cleavage is reported as 1.2. For U9A A22C, the self-cleavage was 0.95. Work on A18G A114U yielded a self-cleavage of 0.14. For A47U A89U, the self-cleavage was 0.95. Variant C34U C76U has a self-cleavage of 0.12. For A56U U57C, the self-cleavage was 1.47. A36U C71U gave a self-cleavage of 0.49. Variant U49G A56G has a self-cleavage of 1.64. Work on A47C A111U yielded a self-cleavage of 0.07. With U49A A66C the self-cleavage was 1.48. With A13U A67G the self-cleavage was 1.14. For A86U A95G, the self-cleavage was 2.02. With U3C G75A the self-cleavage was 0.11. With A90U A134U the self-cleavage was 1.96. Variant A5C U127C has a self-cleavage of 0.89. Work on A66G U122G yielded a self-cleavage of 2.19. Variant U19C A62U has a self-cleavage of 1.48. In the case of G15U U38A, the self-cleavage is reported as 1.8. With A27U U122C the self-cleavage was 1.42. Variant C42U C128U has a self-cleavage of 1.41. U9C U38C showed a self-cleavage of 1.7. Work on G7A A60G yielded a self-cleavage of 2.29. Variant U132C A135U has a self-cleavage of 2.17. In the case of C81G U127C, the self-cleavage is reported as 0.04. Variant A60C A82G has a self-cleavage of 0.28. For U9C G41U, the self-cleavage was 1.55. With A78G U127A the self-cleavage was 0.31. A23G U26A showed a self-cleavage of 1.22. A33C A60G showed a self-cleavage of 1.57. For C42U A62G, the self-cleavage was 1.26. Work on U2G A118G yielded a self-cleavage of 0.66. For U26C G93U, the self-cleavage was 0.86. Work on A78G C109A yielded a self-cleavage of 0.05. In the case of A66G A114C, the self-cleavage is reported as 0.06. With G20U A78G the self-cleavage was 0.26. U120C U127A gave a self-cleavage of 0.21. Work on U70C A125U yielded a self-cleavage of 1.06. For C17A, the self-cleavage was 1.46. A51G A54G showed a self-cleavage of 0.81. U100C U108C gave a self-cleavage of 0.01. In the case of G1U U103C, the self-cleavage is reported as 1.59. With A52C U127A the self-cleavage was 1.62. G48A U70C showed a self-cleavage of 0.31. For A89G G115U, the self-cleavage was 0.11. For U43G A67U, the self-cleavage was 2.63. In the case of U12C A51G, the self-cleavage is reported as 0.87. With U72C U139C the self-cleavage was 0.46. In the case of A33G A68U, the self-cleavage is reported as 1.02. U9C U102C showed a self-cleavage of 2.15. In the case of A23C, the self-cleavage is reported as 0.9. With A11G A33G the self-cleavage was 0.84. A55G A82C gave a self-cleavage of 0.16. Work on C101U G106A yielded a self-cleavage of 0. In the case of U97C G123A, the self-cleavage is reported as 1.14. Work on A117G A126C yielded a self-cleavage of 1.79. With A51G U132C the self-cleavage was 0.81. A59G A64G showed a self-cleavage of 1.37. Work on G83A U122A yielded a self-cleavage of 1.13. For A36U A114G, the self-cleavage was 0.6. Work on U49C C77U yielded a self-cleavage of 2.23. With A13G A96G the self-cleavage was 0.9. Variant A33C U49C has a self-cleavage of 1.93. U70C U131A gave a self-cleavage of 0.45. Variant U120C U132A has a self-cleavage of 1.42. Variant A56G U102G has a self-cleavage of 0.89.
